What was measured:
Assay in all cases: fluorescence anisotropy
RecE564 W859A = molecular target: T1, RecE564 W859A (Escherichia coli K12, UniProt P15032 564-866, W859A)
T1 sequence: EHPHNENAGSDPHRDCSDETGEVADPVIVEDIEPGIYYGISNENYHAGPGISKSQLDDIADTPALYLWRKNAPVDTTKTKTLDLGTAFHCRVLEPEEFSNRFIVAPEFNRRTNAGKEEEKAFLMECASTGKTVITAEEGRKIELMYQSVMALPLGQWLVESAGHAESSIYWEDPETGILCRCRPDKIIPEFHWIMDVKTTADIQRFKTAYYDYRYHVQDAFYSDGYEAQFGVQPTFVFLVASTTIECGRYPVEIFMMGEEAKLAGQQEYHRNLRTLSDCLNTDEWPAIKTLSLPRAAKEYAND

RecE564 K761A = molecular target: T2, RecE564 K761A (Escherichia coli K12, UniProt P15032 564-866, K761A)
T2 sequence: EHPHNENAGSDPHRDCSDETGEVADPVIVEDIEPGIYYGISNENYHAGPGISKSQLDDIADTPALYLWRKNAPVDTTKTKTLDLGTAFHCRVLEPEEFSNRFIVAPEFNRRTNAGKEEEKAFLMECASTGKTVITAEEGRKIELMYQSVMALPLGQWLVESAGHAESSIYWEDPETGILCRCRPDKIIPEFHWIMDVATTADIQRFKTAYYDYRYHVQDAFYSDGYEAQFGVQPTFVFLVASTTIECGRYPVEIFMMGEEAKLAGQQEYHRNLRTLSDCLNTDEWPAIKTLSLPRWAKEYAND

RecE564 K643A = molecular target: T3, RecE564 K643A (Escherichia coli K12, UniProt P15032 564-866, K643A)
T3 sequence: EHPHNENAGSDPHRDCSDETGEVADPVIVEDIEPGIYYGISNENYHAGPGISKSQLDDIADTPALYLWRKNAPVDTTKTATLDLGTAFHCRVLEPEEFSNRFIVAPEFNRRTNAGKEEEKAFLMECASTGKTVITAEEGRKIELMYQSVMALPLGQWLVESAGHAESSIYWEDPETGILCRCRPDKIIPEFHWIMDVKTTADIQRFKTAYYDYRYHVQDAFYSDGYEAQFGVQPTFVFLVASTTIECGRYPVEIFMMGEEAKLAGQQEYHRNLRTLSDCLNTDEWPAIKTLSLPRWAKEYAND

RecE564 E657A = molecular target: T4, RecE564 E657A (Escherichia coli K12, UniProt P15032 564-866, E657A)
T4 sequence: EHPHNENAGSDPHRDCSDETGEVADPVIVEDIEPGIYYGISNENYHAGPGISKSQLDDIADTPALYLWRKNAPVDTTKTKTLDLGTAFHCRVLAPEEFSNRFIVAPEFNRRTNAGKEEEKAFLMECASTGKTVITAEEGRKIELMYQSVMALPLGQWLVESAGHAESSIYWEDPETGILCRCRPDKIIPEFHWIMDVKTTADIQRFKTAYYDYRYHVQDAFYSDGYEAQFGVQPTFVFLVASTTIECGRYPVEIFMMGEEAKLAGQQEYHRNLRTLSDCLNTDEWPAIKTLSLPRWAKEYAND

RecE564 H609A = molecular target: T5, RecE564 H609A (Escherichia coli K12, UniProt P15032 564-866, H609A)
T5 sequence: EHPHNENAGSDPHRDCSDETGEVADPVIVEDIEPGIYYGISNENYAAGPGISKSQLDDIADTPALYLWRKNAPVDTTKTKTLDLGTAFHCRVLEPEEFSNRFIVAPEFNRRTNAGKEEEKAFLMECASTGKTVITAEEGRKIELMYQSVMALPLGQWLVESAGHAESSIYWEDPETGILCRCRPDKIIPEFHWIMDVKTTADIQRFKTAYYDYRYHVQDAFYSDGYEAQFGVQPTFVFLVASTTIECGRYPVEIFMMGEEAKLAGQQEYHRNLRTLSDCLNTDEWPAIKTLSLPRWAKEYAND

RecE564 R744A = molecular target: T6, RecE564 R744A (Escherichia coli K12, UniProt P15032 564-866, R744A)
T6 sequence: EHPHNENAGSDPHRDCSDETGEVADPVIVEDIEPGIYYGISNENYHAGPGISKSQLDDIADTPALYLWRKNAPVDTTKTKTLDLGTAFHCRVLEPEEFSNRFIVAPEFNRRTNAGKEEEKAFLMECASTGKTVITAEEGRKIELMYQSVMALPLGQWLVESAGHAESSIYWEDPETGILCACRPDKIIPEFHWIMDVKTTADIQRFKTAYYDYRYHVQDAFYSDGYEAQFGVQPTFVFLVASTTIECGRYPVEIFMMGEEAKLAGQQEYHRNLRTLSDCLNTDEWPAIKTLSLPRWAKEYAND

lambda exonuclease = molecular target: T7, lambda exonuclease (bacteriophage lambda, UniProt P03697 1-226)
T7 sequence: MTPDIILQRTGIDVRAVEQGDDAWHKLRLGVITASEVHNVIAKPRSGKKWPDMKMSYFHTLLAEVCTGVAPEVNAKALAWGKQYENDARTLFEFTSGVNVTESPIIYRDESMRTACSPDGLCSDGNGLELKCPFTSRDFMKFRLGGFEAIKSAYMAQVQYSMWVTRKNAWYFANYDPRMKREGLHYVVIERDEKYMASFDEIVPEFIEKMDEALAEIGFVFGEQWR

B1: F25 (dsDNA)
DNA 1: TAGAGCTTAATTGCTGAATCTGGTG
DNA 2: CACCAGATTCAGCAATTAAGCTCTA
Kd (RecE564 W859A): 350 ± 20 nM
Kd (RecE564 K761A): 130 ± 10 nM
Kd (RecE564 K643A): 210 ± 6 nM
Kd (RecE564 E657A): 90 ± 10 nM
Kd (RecE564 H609A): 50 ± 3 nM
Kd (RecE564 R744A): 95 ± 8 nM
Kd (lambda exonuclease): 161 ± 2 nM

From publication PMC2688778 (Structure (London, England : 1993), 2009)
